Experimental findings from US8586357B2, “Markers of definitive endoderm” (ViaCyte, Inc., priority 2003, dated 2013) are described below.

In experiment [1] the test system is hESCs (hESCyt-25). In words: Q-PCR gene expression assay of marker genes in differentiating hESCs. Type of experiment: cell-based, human. The following applies: for suppression of AFP gene expression: in comparison to no treatment (10% FBS alone), FIG. 8A. The procedure: In the following experiments, real-time quantitative RT-PCR (Q-PCR) was the primary assay used for screening the effects of various treatments on HESC differentiation. In particular, real-time measurements of gene expression were analyzed for multiple marker genes at multiple time points by Q-PCR. Marker genes characteristic of the desired as well as undesired cell types were evaluated to gain a better understanding of the overall dynamics of the cellular populations. The strength of Q-PCR analysis includes its extreme sensitivity and relative ease of developing the necessary markers, as the genome sequence is readily available. Furthermore, the extremely high sensitivity of Q-PCR permits detection of gene expression from a relatively small number of cells within a much larger population. In addition, the ability to detect very low levels of gene expression provides indications for “differentiation bias” within the population. The bias towards a particular differentiation pathway, prior to the overt differentiation of those cellular phenotypes, is unrecognizable using immunocytochemical techniques. […] Additionally, Q-PCR provides a mechanism by which to evaluate the success of a differentiation protocol in a quantitative format at semi-high throughput scales of analysis.
The approach taken here was to perform relative quantitation using SYBR Green chemistry on a Rotor Gene 3000 instrument (Corbett Research) and a two-step RT-PCR format. Such an approach allowed for the banking of cDNA samples for analysis of additional marker genes in the future, thus avoiding variability in the reverse transcription efficiency between samples.
Primers were designed to lie over exon-exon boundaries or span introns of at least 800 bp when possible, as this has been empirically determined to eliminate amplification from contaminating genomic DNA.
We routinely used Q-PCR to measure the gene expression of multiple markers of target and non-target cell types in order to provide a broad profile description of gene expression in cell samples. The markers relevant for the early phases of hESC differentiation (specifically ectoderm, mesoderm, definitive endoderm and extra-embryonic endoderm) and for which validated primer sets are available are provided below in Table 1. […] This is an important fact since the hESCs were often grown on mouse feeder layers. Most typically, triplicate samples were taken for each condition and independently analyzed in duplicate to assess the biological variability associated with each quantitative determination.
To generate PCR template, total RNA was isolated using RNeasy (Qiagen) and quantitated using RiboGreen (Molecular Probes). Reverse transcription from 350-500 ng of total RNA was carried out using the iScript reverse transcriptase kit (BioRad), which contains a mix of oligo-dT and random primers. Each 20 μL reaction was subsequently diluted up to 100 μL total volume and 3 μL was used in each 10 μL Q-PCR reaction containing 400 nM forward and reverse primers and 5 μL 2×SYBR Green master mix (Qiagen). Two step cycling parameters were used employing a 5 second denature at 85-94° C. (specifically selected according to the melting temp of the amplicon for each primer set) followed by a 45 second anneal/extend at 60° C. Fluorescence data was collected during the last 15 seconds of each extension phase. A three point, 10-fold dilution series was used to generate the standard curve for each run and cycle thresholds (Ct's) were converted to quantitative values based on this standard curve. The quantitated values for each sample were normalized to housekeeping gene performance and then average and standard deviations were calculated for triplicate samples. At the conclusion of PCR cycling, a melt curve analysis was performed to ascertain the specificity of the reaction. A single specific product was indicated by a single peak at the Tm appropriate for that PCR amplicon. […]

In experiment [2] the test system is hESCs. In words: Validation of definitive endoderm markers by Q-PCR (Example 12). Type of experiment: cell-based, human. The following applies: 100 ng/ml activin A vs no exogenous activin A; Example 12 written in present tense. On the procedure:
Using the methods, such as those described in the above Examples, hESCs are differentiated to produce definitive endoderm. In particular, to increase the yield and purity of definitive endoderm in differentiating cell cultures, the serum concentration of the medium is controlled as follows: 0% FBS on day 1, 0.2% FBS on day 2 and 2.0% FBS on days 3-6. Differentiating cell populations are grown in the presence of 100 ng/ml activin A, whereas non-differentiating control populations are grown in the absence of activin A. Human embryonic cell cultures grown in the presence or absence of activin A and in either 2% serum or 10% serum over the entire 6 day differentiation period are also monitored. Daily samples of each culture are withdrawn and the amount of mRNA transcript produced for each of the markers AGPAT3, APOA2, C20orf56, C21orf129, CALCR, CCL2, CER1, CMKOR1, CRIP1, CXCR4, CXorf1, DIO3, DIO3OS, EB-1, EHHADH, ELOVL2, EPSTI1, FGF17, FLJ10970, FLJ21195, FLJ22471, FLJ23514, FOXA2, FOXQ1, GATA4, GPR37, GSC, LOC283537, MYL7, NPPB, NTN4, PRSS2, RTN4RL1, SEMA3E, SIAT8D, SLC5A9, SLC40A1, SOX17, SPOCK3, TMOD1, TRPA1, TTN, AW166727, AI821586, BF941609, AI916532, BC034407, N63706 and AW772192 is measured by Q-PCR.

B1: Activin A: growth factor of the TGFβ superfamily, Nodal/Activin subgroup; definitive endoderm inducer (protein, UniProt P08476 311-426, looked up)
Inhibin beta A chain: GLECDGKVNICCKKQFFVSFKDIGWNDWIIAPSGYHANYCEGECPSHIAGTSGSSLSFHSTVINHYRMRGHSPFANLKSCCVPTKLRPMSMLYYDDGQNIIKKDIQNMIVEECGCS
As to B1, the “SOX17 gene expression, dose response” value in experiment [1] (0, 10, 30 or 100 ng/ml, 3 days adherent then 1, 3 and 5 days suspension culture, FIG. 11) is listed as “dose-dependently increases”. The “relative levels of CXCR4 gene expression with increasing dose” value in experiment [1] (0, 10 or 100 ng/mL, 7 days, FIG. 32) is given as “dramatically increased”. Besides, the CXCR4 expression result in experiment [1] (100 ng/mL activin A (A100) vs no exogenous activin A (NF), 6 days, FIG. 26) was “high”. In addition, the CXCR4 level result in experiment [1] (100 ng/mL activin A, 10% FBS condition, 6 days, FIG. 26) is listed as “remarkable decrease”. Besides, the “mesoderm differentiation (expression of brachyury)” value in experiment [1] (100 ng/ml, FIG. 14B) was “notable suppression”. Also, the “SOX17 induction compared to no factor medium controls” value in experiment [1] (4-day time point, 10% serum) was determined as 5 fold. The “expression of brachyury relative to untreated control cultures” value in experiment [1] (10 and 30 ng/ml, later time points, FIG. 14B) is listed as “maintain the expression of brachyury at later time points”. In experiment [1] (FIG. 7A), the “SOX17 gene expression relative to the undifferentiated control media (SR20)” value is “increases” and the “difference in the level of SOX17 mRNA expression, Activin A vs retinoic acid treated hESCs” value turned out to be 10 fold. Further, in experiment [1] (FIG. 13A), the “expression of the visceral endoderm marker AFP, dose response” value was “dose-dependent decrease”. Moreover, in experiment [1] (FIG. 14A), the “expression of the neural marker ZIC1” value was “not a dose-dependent effect”. In addition, in experiment [1] (FIGS. 12A-C), the “expression of MIXL1, GATA4 and HNF3b, dose response” value is “dose-dependent increases”. The “expression of SOX7 (primitive endoderm) and SPARC (parietal endoderm)” value in experiment [1] (FIGS. 13B-C) was “remain either unchanged or exhibit suppression at some time points”. Besides, the “induction of SOX17 gene expression vs. undifferentiated hESCs” value in experiment [1] (day 4 of differentiation, Activin A at 100 ng/ml, medium with 10% serum, FIG. 19) is 19 fold. In addition, the “SOX17 gene expression and cell number” value in experiment [1] (doses of 100 ng/mL or more) is “potently inducing”. The “suppression of AFP gene expression” value in experiment [1] is listed as 6.8 fold. In addition, in experiment [1] (listed as activin A), the “suppression of AFP gene expression” value was “approximately 7 fold”. For the same molecule, in experiment [2], the “expression levels of the Table 4 markers (AGPAT3 ... AW772192)” value is on record as “high”.
